Source: the supplement of paper PMC7877785
± gives the uncertainty stated by the source.

Test: self-splicing fitness, log relative to wild type (ln ratio); higher = more splicing; Tetrahymena group I intron in knt gene, E. coli kanamycin selection, DiMSum; sequences stand for … in CUCUCU…GGAGGGAAAAGUUAUCAGGCAUGCACCUGGUAGCUAGUCUUUAAACCAAUAGAUUGCAUCGGUUUAAAAGGCAAGACCGUCAAAUUGCGGGAAAGGGGUCAACAGCCGUUCAGUACCAAGUCUCAGGGGAAACUUUGAGAUGGCCUUGCAAAGGGUAUGGUAAUAAGCUGACGGACAUGGUCCUAACCACGCAGCCAAGUCCUAAGUCAACAGAUCUUCUGUUGAUAUGGAUGCAGUUCACAGACUAAAUGUCGGUCGGGGAAGAUGUAUUCUUCUCAUAAGAUAUAGUCGGACCUCUCCUUAAUGGGAGCUAGCGGAUGAAGUGAUGCAACACUGGAGCCGCUGGGAACUAAUUUGUAUGCGAAAGUAUAUUGAUUAGUUUUGGAGUACUCGUGGUCG
How it was run: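 Six replicate transformations of E. coli BL21(DE3) with a pET-22b(+) library were grown overnight at 37°C or 30°C. The library randomised all eight P1ex-region intron nucleotides, the intron lying in the knt kanamycin-resistance gene, and plates were LB agar with or without 25 μg/mL kanamycin plus 100 μg/mL carbenicillin, 50 μM IPTG and 0.2% rhamnose. Pooled colonies were amplicon-sequenced on an Illumina HiSeq 2500, and fitness is the DiMSum error-weighted combination of wild-type-normalised replicate fold changes, kanamycin versus none.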

Row | Sequence | self-splicing fitness (ln) (30 °C) | self-splicing fitness (ln) (37 °C)
1 | UCUCAGCAAUAUUACGGUCA | 0.115 ± 0.061 | 0.0673 ± 0.075
2 | UAUCAGCAAUAUUACGCCCC | 1 ± 0.34 | -1.06 ± 0.41
3 | UCGGAGCAAUAUUACGGUAU | -3.24 ± 0.35 | -2.16 ± 0.26
4 | UCCUAGCAAUAUUACGUCUC | -3.82 ± 0.23 | -2.52 ± 0.21
5 | CCCGAGCAAUAUUACGACUA | -2.29 ± 0.36 | –
6 | UGUGAGCAAUAUUACGCACG | -1.47 ± 0.21 | -1.8 ± 0.21
7 | GCCCAGCAAUAUUACGUAUC | -0.98 ± 0.08 | -1.18 ± 0.081
8 | AUUUAGCAAUAUUACGGAAG | -1.33 ± 0.29 | -1.49 ± 0.39
9 | UCGAAGCAAUAUUACGCAUC | -1.47 ± 0.29 | -2.36 ± 0.3
10 | GAACAGCAAUAUUACGUCAA | -1.14 ± 0.057 | -0.166 ± 0.06
11 | UCGUAGCAAUAUUACGACCA | -1.35 ± 0.3 | –
12 | UUAGAGCAAUAUUACGGUAC | -3.85 ± 0.26 | -2.79 ± 0.4
13 | GGUCAGCAAUAUUACGCGUG | -0.989 ± 0.077 | -0.272 ± 0.083
14 | AGUUAGCAAUAUUACGCCUA | -1.11 ± 0.16 | -0.149 ± 0.13
15 | CCGUAGCAAUAUUACGCAGG | – | -2.75 ± 0.48
16 | ACGGAGCAAUAUUACGCAAG | -3.14 ± 0.27 | -1.79 ± 0.26
17 | CCUUAGCAAUAUUACGGCAC | -3.69 ± 0.29 | -2.71 ± 0.44
18 | CAGCAGCAAUAUUACGAAAU | -3.94 ± 0.25 | -2.97 ± 0.27
19 | CCCGAGCAAUAUUACGGCAC | – | -2.32 ± 0.28
20 | AACCAGCAAUAUUACGAUUU | 0.157 ± 0.044 | -0.0356 ± 0.058
21 | UCCGAGCAAUAUUACGUUCU | -3.44 ± 0.29 | -2.62 ± 0.26
22 | UCAAAGCAAUAUUACGUCUC | -4.01 ± 0.36 | -1.5 ± 0.19
23 | GCGUAGCAAUAUUACGCGUA | -2.83 ± 0.46 | -2.3 ± 0.37
24 | GAUAAGCAAUAUUACGUAAG | -2.38 ± 0.088 | -0.896 ± 0.11
25 | UCUAAGCAAUAUUACGGAUA | -2.97 ± 0.22 | -1.77 ± 0.19
26 | CUGUAGCAAUAUUACGAUGU | -5.35 ± 0.11 | -5.09 ± 0.16

Row | Sequence | self-splicing fitness (ln) (30 °C) | self-splicing fitness (ln) (37 °C)
27 | GUACAGCAAUAUUACGACUG | -1.83 ± 0.13 | -1.33 ± 0.14
28 | UGCAAGCAAUAUUACGCGUA | -1.45 ± 0.18 | -1.57 ± 0.17
29 | ACUGAGCAAUAUUACGGGCC | -2.33 ± 0.38 | -2.51 ± 0.23
30 | UGUCAGCAAUAUUACGUAGG | -0.865 ± 0.079 | -0.275 ± 0.1
31 | AUUAAGCAAUAUUACGCUGG | -1.25 ± 0.12 | -1.39 ± 0.22
32 | GCACAGCAAUAUUACGAUAA | -1.31 ± 0.07 | -0.957 ± 0.096
33 | CCUUAGCAAUAUUACGCCAA | -2.7 ± 0.34 | -0.755 ± 0.31
34 | GCGCAGCAAUAUUACGUCAG | -2.03 ± 0.14 | -2.23 ± 0.18
35 | CCGUAGCAAUAUUACGGAUU | – | -3.01 ± 0.29
36 | UCUUAGCAAUAUUACGCAUG | -1.98 ± 0.18 | -0.995 ± 0.19
37 | AAUUAGCAAUAUUACGGGAC | – | -0.571 ± 0.23
38 | UCAGAGCAAUAUUACGCGGG | -2.22 ± 0.14 | -1.99 ± 0.23
39 | AUCUAGCAAUAUUACGAUAU | -1.15 ± 0.076 | -0.605 ± 0.1
40 | UGGAAGCAAUAUUACGUGGA | -2.88 ± 0.16 | -0.926 ± 0.12
41 | CCGCAGCAAUAUUACGACAA | -3.68 ± 0.23 | -2.21 ± 0.24
42 | UAAAAGCAAUAUUACGCUCG | -0.628 ± 0.084 | 0.0432 ± 0.099
43 | GGACAGCAAUAUUACGGUCU | -3.84 ± 0.24 | -1.18 ± 0.2
44 | GAUGAGCAAUAUUACGUUCU | -2.89 ± 0.16 | -1.32 ± 0.12
45 | AGAUAGCAAUAUUACGGAAU | -2.07 ± 0.15 | -0.731 ± 0.14
46 | GUUUAGCAAUAUUACGUGCA | -0.885 ± 0.099 | -0.958 ± 0.11
47 | UCCCAGCAAUAUUACGCUGA | -2.26 ± 0.12 | -3.02 ± 0.21
48 | UCUCAGCAAUAUUACGCUAU | -3.62 ± 0.43 | -2.37 ± 0.23
49 | GGCGAGCAAUAUUACGCAAC | -0.841 ± 0.36 | -0.673 ± 0.27
50 | UAUUAGCAAUAUUACGACGG | -0.886 ± 0.35 | 0.0207 ± 0.33
51 | ACAGAGCAAUAUUACGAUAA | -4.19 ± 0.46 | -2.51 ± 0.36
52 | AGUAAGCAAUAUUACGUGUG | -4.26 ± 0.18 | -2.32 ± 0.12

Row | Sequence | self-splicing fitness (ln) (30 °C) | self-splicing fitness (ln) (37 °C)
53 | CGCGAGCAAUAUUACGAACU | -1.75 ± 0.18 | -0.234 ± 0.23
54 | GGACAGCAAUAUUACGCGAA | -1.07 ± 0.08 | -0.612 ± 0.094
55 | CUUCAGCAAUAUUACGUUCG | -0.922 ± 0.067 | -0.372 ± 0.092
56 | CGCGAGCAAUAUUACGUAUA | -3.38 ± 0.27 | -1.24 ± 0.24
57 | AUGUAGCAAUAUUACGCCAA | -0.877 ± 0.19 | -1.5 ± 0.19
58 | AAUUAGCAAUAUUACGGCGA | -0.312 ± 0.1 | 0.113 ± 0.1
59 | AGACAGCAAUAUUACGGCAC | -0.629 ± 0.086 | -1.09 ± 0.094
60 | AAAGAGCAAUAUUACGGUGU | -4.54 ± 0.28 | -2.87 ± 0.21
61 | UAUAAGCAAUAUUACGAUCG | -0.0932 ± 0.12 | -0.23 ± 0.13
62 | ACGCAGCAAUAUUACGCAAC | -3.91 ± 0.32 | -1.83 ± 0.18
63 | AAACAGCAAUAUUACGCUAC | -3.84 ± 0.2 | -3.56 ± 0.24
64 | GGCCAGCAAUAUUACGGUAC | -3.7 ± 0.19 | -2.3 ± 0.15
65 | CUAAAGCAAUAUUACGCACU | -3.41 ± 0.2 | -2.34 ± 0.32
66 | CAAAAGCAAUAUUACGCAUA | -3.58 ± 0.17 | -1.77 ± 0.12
67 | CGGCAGCAAUAUUACGUCUG | -2.32 ± 0.21 | -1.86 ± 0.19
68 | UGUGAGCAAUAUUACGGAAU | -3.76 ± 0.32 | -2.04 ± 0.23
69 | AAUAAGCAAUAUUACGGCGG | -0.94 ± 0.093 | -0.865 ± 0.1
70 | AUCAAGCAAUAUUACGACCG | -1.33 ± 0.15 | -0.381 ± 0.18
71 | CAAUAGCAAUAUUACGCGCU | -3.61 ± 0.18 | -2.18 ± 0.18
72 | CAGGAGCAAUAUUACGAAAU | -2.55 ± 0.33 | –
73 | UCCUAGCAAUAUUACGUCUA | – | -2.69 ± 0.38
74 | UCAGAGCAAUAUUACGCGCA | -1.19 ± 0.2 | -1.69 ± 0.29
75 | CCUUAGCAAUAUUACGGGGU | -4.43 ± 0.28 | -2.08 ± 0.19
76 | AAGUAGCAAUAUUACGGAAG | -2.96 ± 0.19 | -2.44 ± 0.37
77 | ACGCAGCAAUAUUACGGUCA | -1.15 ± 0.069 | -0.339 ± 0.069
